This experiment deals with T1, Human CD1d/β2M (human, UniProt P15813 20-301; P61769 21-119).
T1 construct: also called hCD1d; recombinant human CD1d
Nature of the experiment: SPR, transfection supernatant. On the technique in general: Surface plasmon resonance follows binding to a sensor surface in real time, without labels.

B1: 401.11.87 (antibody, name in Kabat numbering, V domains shown)
VH: QVQLVGSGGGLVKPGRSLRLSCAASGFTFDDYAMHWVRQAPGKGLEWVATIIWNSAIIGYADSVKGRFIVSRDNAKNSLYLQMNSLRAEDMALYYCAKDMCSSSSCPDGYFDSWGQGTLVTVSS
VL: DIQMTQSPSSVSASVGDRVTITCRASQHISSWLAWYQQKPGKAPNLLIYAASSLQSGVSSRFSGSGSGTDFTLTISSLQPEDFATYYCQQANRFPLTFGGGTKLEIKR
The Kd is the equilibrium constant for the complex coming apart. Lower therefore signals higher affinity. In the case of B1, the affinity, expressed as Kd, was 7130 pM.

B2: 401.11.109 (antibody, name in Kabat numbering, V domains shown)
VH: QVQLVGSGGGLVKPGRSLRLSCAASGFTFDDYAMHWVRQAPGKGLEWVATIIWNSAIIGYADSVKGRFIVSRDNAKNSLYLQMNSLRAEDMALYYCAKDMCSSSGCWDGYFDSWGQGTLVTVSS
VL: DIQMTQSPSSVSASVGDRVTITCRASQHISSWLAWYQQKPGKAPNLLIYAASSLQSGVSSRFSGSGSGTDFTLTISSLQPEDFATYYCQQANRFPLTFGGGTKLEIKR
On to B2, for which the binding result is reported as “no binding”.

B3: 401.11.118 (antibody, name in Kabat numbering, V domains shown)
VH: QVQLVGSGGGLVKPGRSLRLSCAASGFTFDDYAMHWVRQAPGKGLEWVATIIWNSAIIGYADSVKGRFIVSRDNAKNSLYLQMNSLRAEDMALYYCAKDMCSSSGCPDSYFDSWGQGTLVTVSS
VL: DIQMTQSPSSVSASVGDRVTITCRASQHISSWLAWYQQKPGKAPNLLIYAASSLQSGVSSRFSGSGSGTDFTLTISSLQPEDFATYYCQQANRFPLTFGGGTKLEIKR
B3: the Kd was < 10 pM.

B4: 401.11.103 (antibody, name in Kabat numbering, V domains shown)
VH: QVQLVGSGGGLVKPGRSLRLSCAASGFTFDDYAMHWVRQAPGKGLEWVATIIWNSAIIGYADSVKGRFIVSRDNAKNSLYLQMNSLRAEDMALYYCAKDMCSSSGCGDGYFDSWGQGTLVTVSS
VL: DIQMTQSPSSVSASVGDRVTITCRASQHISSWLAWYQQKPGKAPNLLIYAASSLQSGVSSRFSGSGSGTDFTLTISSLQPEDFATYYCQQANRFPLTFGGGTKLEIKR
In the case of B4, the equilibrium dissociation constant (Kd) was < 10 pM.

B5: 401.11.88 (antibody, name in Kabat numbering, V domains shown)
VH: QVQLVGSGGGLVKPGRSLRLSCAASGFTFDDYAMHWVRQAPGKGLEWVATIIWNSAIIGYADSVKGRFIVSRDNAKNSLYLQMNSLRAEDMALYYCAKDMCSSSACPDGYFDSWGQGTLVTVSS
VL: DIQMTQSPSSVSASVGDRVTITCRASQHISSWLAWYQQKPGKAPNLLIYAASSLQSGVSSRFSGSGSGTDFTLTISSLQPEDFATYYCQQANRFPLTFGGGTKLEIKR
Take B5: the equilibrium dissociation constant (Kd) is 1890 pM.

B6: 401.11.111 (antibody, name in Kabat numbering, V domains shown)
VH: QVQLVGSGGGLVKPGRSLRLSCAASGFTFDDYAMHWVRQAPGKGLEWVATIIWNSAIIGYADSVKGRFIVSRDNAKNSLYLQMNSLRAEDMALYYCAKDMCSSSGCPRGYFDSWGQGTLVTVSS
VL: DIQMTQSPSSVSASVGDRVTITCRASQHISSWLAWYQQKPGKAPNLLIYAASSLQSGVSSRFSGSGSGTDFTLTISSLQPEDFATYYCQQANRFPLTFGGGTKLEIKR
For the molecule B6, the Kd is < 10 pM.

B7: 401.11.104 (antibody, name in Kabat numbering, V domains shown)
VH: QVQLVGSGGGLVKPGRSLRLSCAASGFTFDDYAMHWVRQAPGKGLEWVATIIWNSAIIGYADSVKGRFIVSRDNAKNSLYLQMNSLRAEDMALYYCAKDMCSSSGCLDGYFDSWGQGTLVTVSS
VL: DIQMTQSPSSVSASVGDRVTITCRASQHISSWLAWYQQKPGKAPNLLIYAASSLQSGVSSRFSGSGSGTDFTLTISSLQPEDFATYYCQQANRFPLTFGGGTKLEIKR
B7 returned a Kd of 487 pM.

B8: 401.11.115 (antibody, name in Kabat numbering, V domains shown)
VH: QVQLVGSGGGLVKPGRSLRLSCAASGFTFDDYAMHWVRQAPGKGLEWVATIIWNSAIIGYADSVKGRFIVSRDNAKNSLYLQMNSLRAEDMALYYCAKDMCSSSGCPYGYFDSWGQGTLVTVSS
VL: DIQMTQSPSSVSASVGDRVTITCRASQHISSWLAWYQQKPGKAPNLLIYAASSLQSGVSSRFSGSGSGTDFTLTISSLQPEDFATYYCQQANRFPLTFGGGTKLEIKR
The molecule B8 had a Kd of 667 pM.

B9: 401.11.102 (antibody, name in Kabat numbering, V domains shown)
VH: QVQLVGSGGGLVKPGRSLRLSCAASGFTFDDYAMHWVRQAPGKGLEWVATIIWNSAIIGYADSVKGRFIVSRDNAKNSLYLQMNSLRAEDMALYYCAKDMCSSSGCTDGYFDSWGQGTLVTVSS
VL: DIQMTQSPSSVSASVGDRVTITCRASQHISSWLAWYQQKPGKAPNLLIYAASSLQSGVSSRFSGSGSGTDFTLTISSLQPEDFATYYCQQANRFPLTFGGGTKLEIKR
In turn, B9 returned an equilibrium dissociation constant (Kd) of 457 pM.

B10: 401.11.113 (antibody, name in Kabat numbering, V domains shown)
VH: QVQLVGSGGGLVKPGRSLRLSCAASGFTFDDYAMHWVRQAPGKGLEWVATIIWNSAIIGYADSVKGRFIVSRDNAKNSLYLQMNSLRAEDMALYYCAKDMCSSSGCPGGYFDSWGQGTLVTVSS
VL: DIQMTQSPSSVSASVGDRVTITCRASQHISSWLAWYQQKPGKAPNLLIYAASSLQSGVSSRFSGSGSGTDFTLTISSLQPEDFATYYCQQANRFPLTFGGGTKLEIKR
In turn, B10 came in with an equilibrium dissociation constant (Kd) of 679 pM.

B11: 401.11.110 (antibody, name in Kabat numbering, V domains shown)
VH: QVQLVGSGGGLVKPGRSLRLSCAASGFTFDDYAMHWVRQAPGKGLEWVATIIWNSAIIGYADSVKGRFIVSRDNAKNSLYLQMNSLRAEDMALYYCAKDMCSSSGCPKGYFDSWGQGTLVTVSS
VL: DIQMTQSPSSVSASVGDRVTITCRASQHISSWLAWYQQKPGKAPNLLIYAASSLQSGVSSRFSGSGSGTDFTLTISSLQPEDFATYYCQQANRFPLTFGGGTKLEIKR
In turn, B11 displayed an equilibrium dissociation constant (Kd) of 247 pM.

B12: 401.11.122 (antibody, name in Kabat numbering, V domains shown)
VH: QVQLVGSGGGLVKPGRSLRLSCAASGFTFDDYAMHWVRQAPGKGLEWVATIIWNSAIIGYADSVKGRFIVSRDNAKNSLYLQMNSLRAEDMALYYCAKDMCSSSGCPDKYFDSWGQGTLVTVSS
VL: DIQMTQSPSSVSASVGDRVTITCRASQHISSWLAWYQQKPGKAPNLLIYAASSLQSGVSSRFSGSGSGTDFTLTISSLQPEDFATYYCQQANRFPLTFGGGTKLEIKR
Consider B12, for which the equilibrium dissociation constant (Kd) was determined as 130 pM.

B13: 401.11.107 (antibody, name in Kabat numbering, V domains shown)
VH: QVQLVGSGGGLVKPGRSLRLSCAASGFTFDDYAMHWVRQAPGKGLEWVATIIWNSAIIGYADSVKGRFIVSRDNAKNSLYLQMNSLRAEDMALYYCAKDMCSSSGCYDGYFDSWGQGTLVTVSS
VL: DIQMTQSPSSVSASVGDRVTITCRASQHISSWLAWYQQKPGKAPNLLIYAASSLQSGVSSRFSGSGSGTDFTLTISSLQPEDFATYYCQQANRFPLTFGGGTKLEIKR
Regarding B13, the dissociation constant Kd amounted to 996 pM.

B14: 401.11.112 (antibody, name in Kabat numbering, V domains shown)
VH: QVQLVGSGGGLVKPGRSLRLSCAASGFTFDDYAMHWVRQAPGKGLEWVATIIWNSAIIGYADSVKGRFIVSRDNAKNSLYLQMNSLRAEDMALYYCAKDMCSSSGCPSGYFDSWGQGTLVTVSS
VL: DIQMTQSPSSVSASVGDRVTITCRASQHISSWLAWYQQKPGKAPNLLIYAASSLQSGVSSRFSGSGSGTDFTLTISSLQPEDFATYYCQQANRFPLTFGGGTKLEIKR
Molecule B14 returned a Kd of 2430 pM.

B15: 401.11.119 (antibody, name in Kabat numbering, V domains shown)
VH: QVQLVGSGGGLVKPGRSLRLSCAASGFTFDDYAMHWVRQAPGKGLEWVATIIWNSAIIGYADSVKGRFIVSRDNAKNSLYLQMNSLRAEDMALYYCAKDMCSSSGCPDAYFDSWGQGTLVTVSS
VL: DIQMTQSPSSVSASVGDRVTITCRASQHISSWLAWYQQKPGKAPNLLIYAASSLQSGVSSRFSGSGSGTDFTLTISSLQPEDFATYYCQQANRFPLTFGGGTKLEIKR
Molecule B15 showed a dissociation constant Kd of 877 pM.

B16: 401.11.101 (antibody, name in Kabat numbering, V domains shown)
VH: QVQLVGSGGGLVKPGRSLRLSCAASGFTFDDYAMHWVRQAPGKGLEWVATIIWNSAIIGYADSVKGRFIVSRDNAKNSLYLQMNSLRAEDMALYYCAKDMCSSSGCSDGYFDSWGQGTLVTVSS
VL: DIQMTQSPSSVSASVGDRVTITCRASQHISSWLAWYQQKPGKAPNLLIYAASSLQSGVSSRFSGSGSGTDFTLTISSLQPEDFATYYCQQANRFPLTFGGGTKLEIKR
In the case of B16, the Kd is < 10 pM.

B17: 401.11.117 (antibody, name in Kabat numbering, V domains shown)
VH: QVQLVGSGGGLVKPGRSLRLSCAASGFTFDDYAMHWVRQAPGKGLEWVATIIWNSAIIGYADSVKGRFIVSRDNAKNSLYLQMNSLRAEDMALYYCAKDMCSSSGCPQGYFDSWGQGTLVTVSS
VL: DIQMTQSPSSVSASVGDRVTITCRASQHISSWLAWYQQKPGKAPNLLIYAASSLQSGVSSRFSGSGSGTDFTLTISSLQPEDFATYYCQQANRFPLTFGGGTKLEIKR
Regarding B17, the Kd is 1330 pM.

B18: 401.11.90 (antibody, name in Kabat numbering, V domains shown)
VH: QVQLVGSGGGLVKPGRSLRLSCAASGFTFDDYAMHWVRQAPGKGLEWVATIIWNSAIIGYADSVKGRFIVSRDNAKNSLYLQMNSLRAEDMALYYCAKDMCSSSKCPDGYFDSWGQGTLVTVSS
VL: DIQMTQSPSSVSASVGDRVTITCRASQHISSWLAWYQQKPGKAPNLLIYAASSLQSGVSSRFSGSGSGTDFTLTISSLQPEDFATYYCQQANRFPLTFGGGTKLEIKR
Regarding B18, the dissociation constant (Kd) was < 10 pM.

B19: 401.11.108 (antibody, name in Kabat numbering, V domains shown)
VH: QVQLVGSGGGLVKPGRSLRLSCAASGFTFDDYAMHWVRQAPGKGLEWVATIIWNSAIIGYADSVKGRFIVSRDNAKNSLYLQMNSLRAEDMALYYCAKDMCSSSGCRDGYFDSWGQGTLVTVSS
VL: DIQMTQSPSSVSASVGDRVTITCRASQHISSWLAWYQQKPGKAPNLLIYAASSLQSGVSSRFSGSGSGTDFTLTISSLQPEDFATYYCQQANRFPLTFGGGTKLEIKR
For the molecule B19, the dissociation constant (Kd) was < 10 pM.

B20: 401.11.116 (antibody, name in Kabat numbering, V domains shown)
VH: QVQLVGSGGGLVKPGRSLRLSCAASGFTFDDYAMHWVRQAPGKGLEWVATIIWNSAIIGYADSVKGRFIVSRDNAKNSLYLQMNSLRAEDMALYYCAKDMCSSSGCPFGYFDSWGQGTLVTVSS
VL: DIQMTQSPSSVSASVGDRVTITCRASQHISSWLAWYQQKPGKAPNLLIYAASSLQSGVSSRFSGSGSGTDFTLTISSLQPEDFATYYCQQANRFPLTFGGGTKLEIKR
B20 registered a Kd of 37700 pM.

B21: 401.11.89 (antibody, name in Kabat numbering, V domains shown)
VH: QVQLVGSGGGLVKPGRSLRLSCAASGFTFDDYAMHWVRQAPGKGLEWVATIIWNSAIIGYADSVKGRFIVSRDNAKNSLYLQMNSLRAEDMALYYCAKDMCSSSDCPDGYFDSWGQGTLVTVSS
VL: DIQMTQSPSSVSASVGDRVTITCRASQHISSWLAWYQQKPGKAPNLLIYAASSLQSGVSSRFSGSGSGTDFTLTISSLQPEDFATYYCQQANRFPLTFGGGTKLEIKR
Molecule B21 displayed a dissociation constant Kd of 5300 pM.

The values above are taken from US20140286957A1 (Teva, published 2014).
